The subject of this series is CYT-19. The series can be described thus: ensemble unwinding (CYT-19 concentration dependence). To be noted: kmax 0.86 min-1; functional K1/2 for unwinding; substrate probably -1d,rSA5 = CCCUCdUAAAAA (2'-deoxy at U -1); Ribozyme buffer for complex assembly: 50 mM MOPS pH 7.0, 10 mM MgCl2, 25 C; exact CYT-19/Ded1 assay buffer not in the material.

1 substance from article PMC4211656 can be followed below.

Take “L-16/ScaI group I ribozyme with standard 11-bp P1 (ensemble)”: the K half is 5.7 µM.
